pIC50: −log10 of the molar value. Residues, ends and D or L forms follow the SMILES beside them.
How the values were obtained:
HLA-DRB1*01:01 = HLA-DRB1*01:01 (Homo sapiens, UniProt P01903+P01911, A100R/D57E/F55L/F60I/F76Y/I96L/L162R/M171V/P40L/Q125E/R42F/V115G/Y59C); conditions: competitive ELISA; ratio IC50 of peptide / IC50 of reference peptide HA 306–318; lower = higher affinity; ratio 20 or less high, 20–100 moderate; three independent experiments
HLA-DRB1*04:01 = HLA-DRB1*04:01 (Homo sapiens, UniProt P01903+P01911, A100K/A169T/F76Y/I96L/K127E/L162R/M171V/N62H/P40V/Q125Y/R42H/S133A/S149N/S66Y/V115G/V209L/W38E); conditions: competitive ELISA; ratio IC50 of peptide / IC50 of reference peptide HA 306–318; lower = higher affinity; ratio 20 or less high, 20–100 moderate; three independent experiments
HLA-DRB1*15:02 = target: T1, HLA-DRB1*15:02 (Homo sapiens, UniProt P01903+P01911, V115G); assay: Peptide/HLA-DR binding, competitive ELISA; conditions: for Relative binding affinity of peptide to HLA-DR molecules DRB1*1502: ratio IC50 of peptide / IC50 of reference peptide TFR 607–620, lower = higher affinity, ratio 20 or less high, 20–100 moderate, three independent experiments
T1 construct: HLA-DR heterodimers were purified from homozygous Epstein–Barr virus B-lymphoblastoid cell lines; host or cells: homozygous EBV B-lymphoblastoid cell line
Protocol: (§1) HLA-DR heterodimers were purified from homozygous Epstein–Barr virus B-lymphoblastoid cell lines (HPA Culture Collections, Salisbury, UK) by affinity chromatography with the monomorphic HLA-DRα monoclonal antibody, L243.[29],[30] Binding of the SseB peptide panel to the HLA-DR molecules HLA-DRB1*01:01, 03:01, 04:01, 07:01, 09:01, 11:01, 12:02, 15:01, 15:02 was assessed by competitive ELISA, as previously described, using an automated workstation.[29],[30] We evaluated the peptide concentration able to prevent binding of 50% of the labelled peptide (IC50). Data were expressed as relative affinity: ratio of the IC50 of the peptide to the IC50 of the reference peptide, which is a high binder to the HLA class II molecule. Unlabelled forms of the biotinylated peptides were used as reference peptides.

HLA-DRB1*15:01 = target: T2, HLA-DRB1*15:01 (Homo sapiens, UniProt P01903+P01911); assay: Peptide/HLA-DR binding, competitive ELISA; conditions: for Relative binding affinity of peptide to HLA-DR molecules DRB1*1501: ratio IC50 of peptide / IC50 of reference peptide A3 152–166, lower = higher affinity, ratio 20 or less high, 20–100 moderate, three independent experiments
T2 construct: HLA-DR heterodimers were purified from homozygous Epstein–Barr virus B-lymphoblastoid cell lines; host or cells: homozygous EBV B-lymphoblastoid cell line
Protocol: as §1

HLA-DRB1*12:02 = HLA-DRB1*12:02 (Homo sapiens, UniProt P01903+P01911, A100R/A169T/D57E/D86V/F55L/H45Y/I96F/K41T/L162R/M171V/P40S/Q125H/Q178H/Q39Y/Q99D/R42G/S66L/T262R/V114A/V67L/W38E/Y59H/Y61H/Y89S); assay: Peptide/HLA-DR binding, competitive ELISA; conditions: for Relative binding affinity of peptide to HLA-DR molecules DRB1*1202: ratio IC50 of peptide / IC50 of reference peptide TFR 141–155, lower = higher affinity, ratio 20 or less high, 20–100 moderate, three independent experiments
Protocol: as §1

HLA-DRB1*03:01 = target: T3, HLA-DRB1*03:01 (Homo sapiens, UniProt P01903+P01911, A100K/A102G/A103R/A169T/F55Y/I96L/K41T/L162R/M171V/P40S/Q125H/Q178H/Q39Y/R42S/S66N/T106N/T262R/W38E/Y61H); assay: Peptide/HLA-DR binding, competitive ELISA; conditions: ratio IC50 of peptide / IC50 of reference peptide MT2-16, lower = higher affinity, ratio 20 or less high, 20–100 moderate, three independent experiments
T3 construct: HLA-DR heterodimers were purified from homozygous Epstein–Barr virus B-lymphoblastoid cell lines; host or cells: homozygous EBV B-lymphoblastoid cell line
Protocol: as §1

HLA-DRB1*09:01 = target: T4, HLA-DRB1*09:01 (Homo sapiens, UniProt P01903+P01911, A100R/A103E/D57H/D86V/F55Y/F60I/F76Y/I96F/K127E/L162R/M171V/P40D/Q125H/Q99R/R33Q/R42F/S133A/S66N/T210M/V115G/W38K/Y107V/Y59G/Y89S); assay: Peptide/HLA-DR binding, competitive ELISA; conditions: for Relative binding affinity of peptide to HLA-DR molecules DRB1*0901: ratio IC50 of peptide / IC50 of reference peptide CTP 427–441, lower = higher affinity, ratio 20 or less high, 20–100 moderate, three independent experiments
T4 construct: HLA-DR heterodimers were purified from homozygous Epstein–Barr virus B-lymphoblastoid cell lines; host or cells: homozygous EBV B-lymphoblastoid cell line
Protocol: as §1

HLA-DRB1*07:01 = HLA-DRB1*07:01 (Homo sapiens, UniProt P01903+P01911, A100R/A102G/A103Q/D57E/D86V/E43K/F76Y/K127E/L162R/M171V/P40G/Q125H/Q99D/R33Q/R42Y/R54Q/S133A/S66F/T210M/V115G/Y107V/Y59L/Y89S); conditions: competitive ELISA; ratio IC50 of peptide / IC50 of reference peptide HA 306–318; lower = higher affinity; ratio 20 or less high, 20–100 moderate; three independent experiments
HLA-DRB1*11:01 = HLA-DRB1*11:01 (Homo sapiens, UniProt P01903+P01911, A100R/A169T/A87E/I96F/K41T/L162R/M171V/P40S/Q125H/Q178H/Q39Y/Q99D/R42S/S66Y/T262R/V115G/W38E); conditions: competitive ELISA; ratio IC50 of peptide / IC50 of reference peptide HA 306–318; lower = higher affinity; ratio 20 or less high, 20–100 moderate; three independent experiments

Compound | Relative binding affinity of peptide to HLA-DR molecules DRB1*0101 (HLA-DRB1*01:01) | Relative binding affinity of peptide to HLA-DR molecules DRB1*0401 (HLA-DRB1*04:01) | Relative binding affinity of peptide to HLA-DR molecules DRB1*1502 (HLA-DRB1*15:02) | Relative binding affinity of peptide to HLA-DR molecules DRB1*1501 (HLA-DRB1*15:01) | Relative binding affinity of peptide to HLA-DR molecules DRB1*1202 (HLA-DRB1*12:02) | Relative binding affinity of peptide to HLA-DR molecules DRB1*0301 (HLA-DRB1*03:01) | Relative binding affinity of peptide to HLA-DR molecules DRB1*0901 (HLA-DRB1*09:01) | Relative binding affinity of peptide to HLA-DR molecules DRB1*0701 (HLA-DRB1*07:01) | Relative binding affinity of peptide to HLA-DR molecules DRB1*1101 (HLA-DRB1*11:01) | pIC50 (HLA-DRB1*15:01; DRB1*15:01, unlabelled form of the biotinylated peptide, read-out: IC50 of reference peptide) | pIC50 (HLA-DRB1*09:01; DRB1*0901, unlabelled form of the biotinylated peptide, read-out: IC50 of reference peptide) | pIC50 (HLA-DRB1*12:02; DRB1*1202, unlabelled form of the biotinylated peptide, read-out: IC50 of reference peptide) | pIC50 (HLA-DRB1*15:02; DRB1*15:02, unlabelled form of the biotinylated peptide, read-out: IC50 of reference peptide)
3: SseB overlapping library peptide, residues 21–40 (GVSNADTGSQDDLSQQNPFA) [Peptide 3] | > 4149 | > 145 | > 3 333 | > 270 | > 136 | > 119 | > 689 | > 336 |  |  |  |  | 
4: SseB overlapping library peptide, residues 31–50 (DDLSQQNPFAEGYGVLLILL) [Peptide 4] | 22 | > 145 | 55 | 10 | > 136 | > 119 | 28 | 6 |  |  |  |  | 
5: SseB overlapping library peptide, residues 41–60 (EGYGVLLILLMVIQAIANNK) [Peptide 5] | > 4149 | > 145 | > 3 333 | > 270 | > 136 | > 119 | > 689 | > 336 | > 278 |  |  |  | 
6: SseB overlapping library peptide, residues 51–70 (MVIQAIANNKFIEVQKNAER) [Peptide 6] | 235 | 6 | 577 | 1 | 2 | > 119 | > 689 | 2 | 8 |  |  |  | 
7: SseB overlapping library peptide, residues 61–80 (FIEVQKNAERARNTQEKSNE) [Peptide 7] |  | 109 | > 3 333 | 211 | > 136 | 89 | > 689 | > 336 | > 278 |  |  |  | 
8: SseB overlapping library peptide, residues 71–90 (ARNTQEKSNEMDEVIAKAAK) [Peptide 8] | > 4149 | > 145 | > 3 333 | > 270 | > 136 | > 119 | > 689 | > 336 | > 278 |  |  |  | 
CC(C)C[C@H](NC(=O)[C@H](Cc1ccc(O)cc1)NC(=O)[C@H](C)NC(=O)[C@H](CCCNC(=N)N)NC(=O)[C@H](CC(C)C)NC(=O)[C@H](CCC(N)=O)NC(=O)[C@H](CCC(=O)O)NC(=O)[C@H](C)NC(=O)[C@@H](N)CCC(=O)O)C(=O)N[C@@H](CC(=O)O)C(=O)NCC(=O)N[C@H](C(=O)NCC(=O)N[C@H](C(=O)N[C@@H](CCC(=O)O)C(=O)O)C(C)C)[C@@H](C)O [A3 152–166, reference compound] |  |  |  |  |  |  |  |  |  | 7.43 |  |  | 
CC[C@H](C)[C@H](NC(=O)[C@H](CCCNC(=N)N)NC(=O)[C@H](CO)NC(=O)[C@@H](NC(=O)[C@H](C)NC(=O)[C@@H]1CCCN1C(=O)[C@H](CC(N)=O)NC(=O)[C@H](Cc1ccc(O)cc1)NC(=O)[C@H](Cc1ccccc1)NC(=O)CNC(=O)[C@H](Cc1c[nH]cn1)NC(=O)[C@@H](N)C(C)C)C(C)C)C(=O)N[C@H](C(=O)N[C@@H](CCC(=O)O)C(=O)N[C@@H](C)C(=O)O)C(C)C [CTP 427–441, reference compound] (H-VHGFYNPAVSRIVEA-OH) |  |  |  |  |  |  |  |  |  |  | 7.82 |  | 
CC[C@H](C)[C@H](NC(=O)[C@@H](NC(=O)CNC(=O)[C@@H](N)[C@@H](C)O)[C@@H](C)O)C(=O)N[C@@H](CCCCN)C(=O)N[C@@H](CC(C)C)C(=O)N[C@@H](CC(C)C)C(=O)N[C@@H](CC(N)=O)C(=O)N[C@@H](CCC(=O)O)C(=O)N[C@@H](CC(N)=O)C(=O)N[C@@H](CO)C(=O)N[C@@H](Cc1ccc(O)cc1)C(=O)N[C@H](C(=O)N1CCC[C@H]1C(=O)N[C@@H](CCCNC(=N)N)C(=O)O)C(C)C [TFR 141–155, reference compound] (H-TGTIKLLNENSYVPR-OH) |  |  |  |  |  |  |  |  |  |  |  | 7.14 | 
CC(C)C[C@H](NC(=O)[C@H](CC(C)C)NC(=O)[C@H](CCC(N)=O)NC(=O)[C@H](CO)NC(=O)[C@H](CC(N)=O)NC(=O)[C@H](Cc1ccc(O)cc1)NC(=O)[C@H](CCCNC(=N)N)NC(=O)[C@H](CCC(=O)O)NC(=O)[C@H](Cc1ccc(O)cc1)NC(=O)[C@H](CC(=O)O)NC(=O)[C@H](CC(C)C)NC(=O)[C@H](CC(N)=O)NC(=O)[C@@H](N)CC(C)C)C(=O)N[C@@H](CO)C(=O)O [TFR 607–620, reference compound] (H-LNLDYERYNSQLLS-OH) |  |  |  |  |  |  |  |  |  |  |  |  | 8.52
